Data: doi:10.64898/2025.12.22.696113

Each substance was assayed against extracellular domain of Arabidopsis thaliana HAESA-LIKE 3 (HSL3, AT5G25930, residues 23–662) (Arabidopsis thaliana) (assay: SPR).

Kd	kon	Substance
1.99 µM	1140 M⁻¹ s⁻¹	CTNIP4^48–70 (peptide)
3.91 µM	568 M⁻¹ s⁻¹	CTNIP4^51–70 (peptide)
5.29 µM	498 M⁻¹ s⁻¹	CTNIP4^54–70 (peptide)
